According to US11653679B2, “High-purity steviol glycosides” (PureCircle Sdn Bhd, priority 2014, dated 2023):
Residue numbers refer to the chain shown, from its start.

How the values were obtained:
[1] = Sweetness of reb M compared to a 10% sucrose solution
From the text: The high purity reb M obtained in this invention, having a molecular weight of 1291.29, a molecular formula of C56H90O33, CAS registry number 1220616-44-3, and the structure presented in FIG. 1, is in the form of a white and odorless powder. The compound is about 200 times sweeter than sugar when compared to a 10% sucrose solution.

[2] = Heat and pH stability of reb M; assay type: physicochemical
[3] = Solubility of reb M in water and solvents; assay type: physicochemical
Method: Other properties of the pure reb M compound include a melting point of 249-250° C., and a specific rotation of [α]D^25−19.0° in 50% ethanol (C=1.0). The solubility of reb Min water is around 0.3%, and increases with an increase in temperature.
Reb M is soluble in diluted solutions of methanol, ethanol, n-propanol, and isopropanol. However, it is insoluble in acetone, benzene, chloroform, and ether.

[4] = Catalytic reaction Rebaudioside A to Rebaudioside D with in-vitro produced UGT91D2 (Example 5); assay type: biochemical; conditions: after 120 h, in-vitro produced UGT91D2, 0.1 mM Rebaudioside A, 30° C.
Method: The total volume of the reaction was 0.5 mL with the following composition: 50 mM sodium phosphate buffer pH 7.2, 3 mM MgCl2, 3.8 mM UDP-glucose, 0.1 mM Rebaudioside A and 180 μL of in-vitro produced UGT91D2. The reactions were run at 30° C. on an orbitary shaker at 135 rpm. For each sample, 450 μl of reaction mixture was quenched with 45 μL of 2N H2SO4 and 405 μL of 60% MeOH. After centrifugation, the supernatant was analyzed by HPLC (CAD). HPLC indicated a 4.7% conversion of rebaudioside A to rebaudioside D after 120 h.

[5] = Transformation of Rubusoside to Stevioside with in-vivo preparations of UGT91D2 (Example 19); assay type: biochemical; conditions: per mL of lysate; 1 U transforms 1 μmol of substrate in 1 hour at 30° C. and pH 7.2
Method: Activity tests were performed at 5 mL scale with 1000 μL of lysate for the transformation of Rubusoside to Stevioside using 0.5 mM of substrate, 2.5 mM of UDP-Glucose and 3 mM MgCl2 in 50 mM Sodium Phosphate buffer at pH 7.2. Samples were taken and analyzed by HPLC.

[6] = Directed evolution of UGT76G1, Rebaudioside D to Rebaudioside M, round 1 (Example 26); assay type: biochemical; conditions: 100 μL fresh lysate, 0.5 mM Rebaudioside D, 30° C., pH 7.2
Summary of the method: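 Conversion and initial rate were determined by HPLC with CAD detection on samples taken at 2, 4, 7 and 24 h. Reactions ran at 30 °C in 50 mM phosphate buffer pH 7.2 with lysate, Rebaudioside D (0.5 mM), UDP-glucose (2.5 mM) and MgCl2 (3 mM).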

[7] = Directed evolution of UGT76G1, Rebaudioside D to Rebaudioside X, round 2 (Example 41); assay type: biochemical; conditions: baseline clone Round1-Var94 defined as 100%, 100 μL lysate, 0.5 mM Rebaudioside D, 30° C., pH 7.2
Method: Lysis was performed by addition of Bugbuster® Master mix (Novagen®) to the thawed cells and the lysate was recovered by centrifugation. Activity tests were performed with 100 μL of fresh lysate that was added to a solution of Rebaudioside D (final concentration 0.5 mM), MgCl2 (final concentration 3 mM) and UDP-Glucose (final concentration 2.5 mM) in 50 mM phosphate buffer pH 7.2.
The reaction was allowed to run at 30° C. and samples were taken after 2, 4, 7 and 24 h. to determine conversion and initial rate by HPLC (CAD detection) using the analytical method that was described above for the transformation of Rebaudioside D to Rebaudioside X. In parallel the experiments were performed with baseline clone, Round1-Var94. The conversion after 22 h. and initial rate for this baseline clone was defined as 100% and the normalized conversions and initial rates for the round 2 clones are depicted in the following table: […]

[8] = Activity of UGT76G1_Sc for conversion of Rebaudioside D to Rebaudioside M (Example 35); assay type: biochemical; conditions: 21 h., based on initial concentration of Rebaudioside D
Method: UGT76G1_Sc was prepared according to EXAMPLE 34. Activity tests were performed at 2 mL scale with 200 μL of lysate for the transformation of Rebaudioside D using 0.5 mM of substrate, 2.5 mM of UDP-Glucose and 3 mM MgCl2 in 50 mM Sodium Phosphate buffer at pH 7.2. Samples were taken and analyzed by HPLC. The corresponding chromatogram is depicted in FIG. 64.

In the case of C=C1C[C@@]23CC[C@H]4[C@@](C)(CCC[C@@]4(C)C(=O)O[C@@H]4O[C@H](CO)[C@@H](O)[C@H](O[C@@H]5O[C@H](CO)[C@@H](O)[C@H](O)[C@H]5O)[C@H]4O[C@@H]4O[C@H](CO)[C@@H](O)[C@H](O)[C@H]4O)[C@@H]2CC[C@]1(O[C@@H]1O[C@H](CO)[C@@H](O)[C@H](O[C@@H]2O[C@H](CO)[C@@H](O)[C@H](O)[C@H]2O)[C@H]1O[C@@H]1O[C@H](CO)[C@@H](O)[C@H](O)[C@H]1O)C3 [reb M, Rebaudioside M], the “sweetness relative to sugar” value [1] is reported as “about 200 times sweeter than sugar”, the “heat and pH stability” value [2] is reported as “heat and pH-stable” and the “solubility in acetone, benzene, chloroform, and ether” value [3] is reported as “insoluble”. The “solubility in diluted solutions of methanol, ethanol, n-propanol, and isopropanol” value [3] was “soluble” and the solubility in water ([3]; increases with an increase in temperature) was “around 0.3%”.

B1: UGT91D2: UDP-glucosyltransferase, Genbank accession no. ACE87855.1 (protein, UniProt B3VI56 1-473, looked up)
UDP-glycosyltransferase 91D2: MATSDSIVDDRKQLHVATFPWLAFGHILPYLQLSKLIAEKGHKVSFLSTTRNIQRLSSHISPLINVVQLTLPRVQELPEDAEATTDVHPEDIPYLKKASDGLQPEVTRFLEQHSPDWIIYDYTHYWLPSIAASLGISRAHFSVTTPWAIAYMGPSADAMINGSDGRTTVEDLTTPPKWFPFPTKVCWRKHDLARLVPYKAPGISDGYRMGLVLKGSDCLLSKCYHEFGTQWLPLLETLHQVPVVPVGLLPPEVPGDEKDETWVSIKKWLDGKQKGSVVYVALGSEVLVSQTEVVELALGLELSGLPFVWAYRKPKGPAKSDSVELPDGFVERTRDRGLVWTSWAPQLRILSHESVCGFLTHCGSGSIVEGLMFGHPLIMLPIFGDQPLNARLLEDKQVGIEIPRNEEDGCLTKESVARSLRSVVVEKEGEIYKANARELSKIYNDTKVEKEYVSQFVDYLEKNTRAVAIDHES
With B1 the “conversion of rebaudioside A to rebaudioside D” value [4] was 4.7%.

B2: Example 15: UGT91D2 lysate using pMAL plasmid and BL21 expression strain (protein, UniProt B3VI56 1-473, looked up)
UDP-glycosyltransferase 91D2: B1 UDP-glycosyltransferase 91D2
modifications: MBP fusion from pMAL, E. coli lysate
notes: UGT91D2 lysate using pMAL plasmid and BL21 expression strain
In the case of B2, the “Transformation activity Rubusoside to Stevioside” value [5] is reported as 9 mU mL^−1.

B3: Example 18: UGT91D2 lysate using pET30a+ plasmid and ArcticExpress expression strain (protein, UniProt B3VI56 1-473, looked up)
UDP-glycosyltransferase 91D2: B1 UDP-glycosyltransferase 91D2
modifications: E. coli lysate
notes: UGT91D2 lysate using pET30a+ plasmid and ArcticExpress expression strain
With B3 the “Transformation activity Rubusoside to Stevioside” value [5] was 21 mU mL^−1.

B4: Example 17: UGT91D2 lysate using pET30a+ plasmid and Tuner (DE3) expression strain (protein, UniProt B3VI56 1-473, looked up)
UDP-glycosyltransferase 91D2: B1 UDP-glycosyltransferase 91D2
modifications: E. coli lysate
notes: UGT91D2 lysate using pET30a+ plasmid and Tuner (DE3) expression strain
In the case of B4, the “Transformation activity Rubusoside to Stevioside” value [5] is reported as 28 mU mL^−1.

B5: UGT76G1var94: UGT76G1 variant, mutations Q266E_P272A_R334K_G348P_L379G (protein, UniProt Q6VAB4 1-458, looked up, variant Q266E P272A R334K G348P L379G)
UDP-glycosyltransferase 76G1: MENKTETTVRRRRRIILFPVPFQGHINPILQLANVLYSKGFSITIFHTNFNKPKTSNYPHFTFRFILDNDPQDERISNLPTHGPLAGMRIPIINEHGADELRRELELLMLASEEDEEVSCLITDALWYFAQSVADSLNLRRLVLMTSSLFNFHAHVSLPQFDELGYLDPDDKTRLEEQASGFPMLKVKDIKSAYSNWQILKEILGKMIKQTKASSGVIWNSFKELEESELETVIREIPAPSFLIPLPKHLTASSSSLLDHDRTVFEWLDQQAPSSVLYVSFGSTSEVDEKDFLEIARGLVDSKQSFLWVVRPGFVKGSTWVEPLPDGFLGERGKIVKWVPQQEVLAHPAIGAFWTHSGWNSTLESVCEGVPMIFSDFGGDQPLNARYMSDVLKVGVYLENGWERGEIANAIRRVMVDEEGEYIRQNARVLKQKADVSLMKGGSSYESLESLVSYISSL
For B5, the “conversion Reb D to Reb M after 24 h” value [6] was 72.0%, the initial rate [6] was 7.9E+07 Reb M area/min and the “Normalized conversion Reb D to Reb X after 22 h.” value [7] was 100%. For the same molecule, the “Normalized initial rate (0-4 h)” value [7] was 100%.

B6: UGT76G1_Sc: UGT76G1 produced in S. cerevisiae, lysate (protein, UniProt Q6VAB4 1-458, looked up)
UDP-glycosyltransferase 76G1: B5 UDP-glycosyltransferase 76G1 with E266Q, A272P, K334R, P348G, G379L
modifications: S. cerevisiae lysate
With B6 the “Rebaudioside D conv. (reaction time)” value ([8]; 200 μL lysate, 0.5 mM substrate, 2.5 mM UDP-Glucose, pH 7.2) was 85% (21 h.) and the “Rebaudioside M selectivity” value [8] was 100%.
